Assay results from PMC5699509.
Read-outs that look alike come from different tables or passages of the source.

B1: oligo 9 ssDNA (AF546 poly-dA) (ssDNA)
DNA: AAAAAAAAAAAAAAAAAAAAAAAAA
B2: oligo 9/10 dsDNA (AF546) (dsDNA)
DNA 1: AAAAAAAAAAAAAAAAAAAAAAAAA
DNA 2: TTTTTTTTTTTTTTTTTTTTTTTTT

Key:
Experiment in all cases: fluorescence quenching
[1] = target: T1, RAD51 WT (Homo sapiens, UniProt Q06609 1-339)
[2] = target: T2, RAD51 F86L (Homo sapiens, UniProt Q06609 1-339, F86L)
[3] = target: T1, RAD51 WT; remark: listed apart in the source
[4] = target: T3, RAD51 E258A (Homo sapiens, UniProt Q06609 1-339, E258A)
[5] = target: T2, RAD51 F86L; remark: listed apart in the source
[6] = target: T3, RAD51 E258A; remark: listed apart in the source

T3 sequence (Q06609 whole entry E258A): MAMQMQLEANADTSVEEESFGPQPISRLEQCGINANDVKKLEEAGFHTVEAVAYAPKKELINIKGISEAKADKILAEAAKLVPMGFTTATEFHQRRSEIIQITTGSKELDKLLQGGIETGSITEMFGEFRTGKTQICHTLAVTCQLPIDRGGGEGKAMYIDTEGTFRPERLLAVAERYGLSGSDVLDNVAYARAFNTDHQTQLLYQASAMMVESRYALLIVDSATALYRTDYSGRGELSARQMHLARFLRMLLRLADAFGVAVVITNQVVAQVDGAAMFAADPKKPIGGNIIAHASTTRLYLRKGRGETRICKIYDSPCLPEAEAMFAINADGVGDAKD
T1 sequence (Q06609 whole entry): as the sequence (Q06609 whole entry E258A) above, with A258E counted along it
T2 sequence (Q06609 whole entry F86L): as the sequence (Q06609 whole entry E258A) above, with F86L, A258E counted along it

Row | Binder | Kd [1] [nM] | Kd [2] [nM] | Kd [3] [nM] | Kd [4] [nM] | Kd [5] [nM] | Kd [6] [nM]
1 | B1 | 1900 ± 200 | 4900 ± 400 | 600 ± 100 | 3100 ± 300 |  | 
2 | B2 | 800 ± 100 | 1800 ± 200 | 700 ± 100 | 1300 ± 100 | 1700 ± 100 | 2100 ± 100
